In patent publication US20150337053A1:

Tests used:
human FcγRI (human) [1] = biological target: human FcγRI (human) (UniProt P12314); assay: SPR (Biacore 3000), His-tagged receptor captured on anti-His IgG, antibody injected; steady state fit
[2] = biological target: human FcγRIIIa (Example 1) (human) (UniProt P08637); assay: as above
[3] = biological target: human FcγRIIa (Example 1, allotype not stated) (human) (UniProt P12318); assay: as above
human FcγRI (human) [4] = biological target: human FcγRI (human) (UniProt P12314); assay: SPR (Biacore 3000), His-tagged receptor captured on anti-His IgG, antibody injected; 1:1 kinetic fit
[5] = biological target: human FcγRIIIa (Example 1) (human) (UniProt P08637); assay: as above

Chain of human FcγRIIa (Example 1, allotype not stated) (human) (P12318 36-218 limits assumed): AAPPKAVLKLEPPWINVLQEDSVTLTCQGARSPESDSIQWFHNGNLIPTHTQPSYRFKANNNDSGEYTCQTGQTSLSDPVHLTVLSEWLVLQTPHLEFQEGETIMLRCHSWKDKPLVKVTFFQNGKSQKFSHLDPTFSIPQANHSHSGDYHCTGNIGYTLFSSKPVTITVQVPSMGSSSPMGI
Chain of human FcγRIIIa (Example 1) (human) (P08637 17-208 F176V limits assumed): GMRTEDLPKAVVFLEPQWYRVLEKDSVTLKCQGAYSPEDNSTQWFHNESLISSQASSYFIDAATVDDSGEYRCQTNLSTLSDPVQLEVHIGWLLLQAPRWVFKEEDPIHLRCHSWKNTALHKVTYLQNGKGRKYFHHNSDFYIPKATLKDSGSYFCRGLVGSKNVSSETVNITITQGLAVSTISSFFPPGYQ
Chain of human FcγRI (human) (P12314 16-288 limits assumed): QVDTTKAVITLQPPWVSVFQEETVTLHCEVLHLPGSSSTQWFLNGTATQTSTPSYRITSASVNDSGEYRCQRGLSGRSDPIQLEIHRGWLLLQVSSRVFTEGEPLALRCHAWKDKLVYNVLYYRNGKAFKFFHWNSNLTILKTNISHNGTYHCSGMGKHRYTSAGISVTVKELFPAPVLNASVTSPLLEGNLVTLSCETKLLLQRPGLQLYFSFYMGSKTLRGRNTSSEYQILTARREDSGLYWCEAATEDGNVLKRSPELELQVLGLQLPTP

Row | Kd (human FcγRI (human) [1]) [µM] | Kd [2] [µM] | Kd [3] [µM] | Kd (human FcγRI (human) [4]) [µM] | Kd [5] [µM] | Substance
1 | 15 | 55 | 150 |  |  | huIgG4 Ala-Ala, Ser-Pro (S228P, F234A, L235A) (antibody)
2 | 38 | > 95 | 170 |  |  | huIgG2c4b (V234A, G237A, H268Q, V309L, A330S, P331S) (antibody)
3 | 160 | 85 | 2.2 |  |  | huIgG2c4a (H268A, V309L, A330S, P331S) (antibody)
4 |  |  | 19 | 0.044 | 0.64 | huIgG2c4c (V234A, G237A, H268A, V309L, A330S, P331S) (antibody)
5 |  |  | 0.7 | 0.013 |  | huIgG1 (wild type human IgG1 isotype, anti-Her2/neu construct) (antibody)
6 | 3.7 | > 95 | > 170 |  |  | huIgG1-Ag (aglycosylated IgG1, N297A) (antibody)
7 | > 210 | > 95 | > 170 |  |  | huIgG2c4e (P233S, V234A, G237A, P238S, H268A, V309L, A330S, P331S) (antibody)
8 | 120 | 41 | 1 |  |  | huIgG2 (wild type human IgG2 isotype, anti-Her2/neu construct) (antibody)
9 | > 210 | > 95 | > 170 |  |  | huIgG2c4d (V234A, G237A, P238S, H268A, V309L, A330S, P331S) (antibody)
10 | 210 | 95 | 2.7 |  |  | huIgG2m4 (H268Q, V309L, A330S, P331S) (antibody)
